Test results reported in patent US20250243261A1.

B1: MEDI8852 UCA VH V65P/VL G95P IgG (antibody, V domains shown)
VH: QVQLQQSGPGLVKPSQTLSLTCAISGDSVSSNSAAWNWIRQSPSRGLEWLGRTYYRSKWYNDYAPSVKSRITINPDTSKNQFSLQLNSVTPEDTAVYYCARGGHITIFGVNIDAFDIWGQGTMVTVSS
VL: DIQMTQSPSSLSASVGDRVTITCRASQSISSYLNWYQQKPGKAPKLLIYAASSLQSGVPSRFSGSGSGTDFTLTISSLQPEDFATYYCQQSRTFPQGTKVEIK
B2: mAb114 VH D42G-A68T-S79Y IgG (antibody, V domains shown)
VH: EVQLVESGGGLIQPGGSLRLSCAASGFALRMYDMHWVRQTIGKRLEWVSAVGPSGDTYYADSVKGRFTVSRENAKNSLYLQMNSLTAGDTAIYYCVRSDRGVAGLFDSWGQGILVTVSS
VL: DIQMTQSPSSLSASVGDRITITCRASQAFDNYVAWYQQRPGKVPKLLISAASALHAGVPSRFSGSGSGTHFTLTISSLQPEDVATYYCQNYNSAPLTFGGGTKVEIK
B3: mAb114 VH I41P-D42G-A68T-S79Y-I113T IgG (antibody, V domains shown)
VH: EVQLVESGGGLIQPGGSLRLSCAASGFALRMYDMHWVRQTPGKRLEWVSAVGPSGDTYYADSVKGRFTVSRENAKNSLYLQMNSLTAGDTAIYYCVRSDRGVAGLFDSWGQGTLVTVSS
VL: DIQMTQSPSSLSASVGDRITITCRASQAFDNYVAWYQQRPGKVPKLLISAASALHAGVPSRFSGSGSGTHFTLTISSLQPEDVATYYCQNYNSAPLTFGGGTKVEIK
B4: mAb114 VH I41P-D42G-A68T-S79Y-I113T / VL V43A IgG (antibody, V domains shown)
VH: EVQLVESGGGLIQPGGSLRLSCAASGFALRMYDMHWVRQTPGKRLEWVSAVGPSGDTYYADSVKGRFTVSRENAKNSLYLQMNSLTAGDTAIYYCVRSDRGVAGLFDSWGQGTLVTVSS
VL: DIQMTQSPSSLSASVGDRITITCRASQAFDNYVAWYQQRPGKAPKLLISAASALHAGVPSRFSGSGSGTHFTLTISSLQPEDVATYYCQNYNSAPLTFGGGTKVEIK
B5: mAb114 VH A68T-E72D-S79Y-I113T / VL V43A IgG (antibody, V domains shown)
VH: EVQLVESGGGLIQPGGSLRLSCAASGFALRMYDMHWVRQTIDKRLEWVSAVGPSGDTYYADSVKGRFTVSRDNAKNSLYLQMNSLTAGDTAIYYCVRSDRGVAGLFDSWGQGTLVTVSS
VL: DIQMTQSPSSLSASVGDRITITCRASQAFDNYVAWYQQRPGKAPKLLISAASALHAGVPSRFSGSGSGTHFTLTISSLQPEDVATYYCQNYNSAPLTFGGGTKVEIK
B6: mAb114 VH A68T-I113T / VL V43A IgG (antibody, V domains shown)
VH: EVQLVESGGGLIQPGGSLRLSCAASGFALRMYDMHWVRQTIDKRLEWVSAVGPSGDTYYADSVKGRFTVSRENAKNSLSLQMNSLTAGDTAIYYCVRSDRGVAGLFDSWGQGTLVTVSS
VL: DIQMTQSPSSLSASVGDRITITCRASQAFDNYVAWYQQRPGKAPKLLISAASALHAGVPSRFSGSGSGTHFTLTISSLQPEDVATYYCQNYNSAPLTFGGGTKVEIK

molecular target: HA H4 Hubei, A/swine/Hubei/06/2009(H4N1) (Influenza A virus); assay: not given

For B1, the Kd was 100 nM.

molecular target: full-length Ebola GP on pseudotyped lentivirus (Zaire ebolavirus) (UniProt Q05320); assay: cell-based or functional assay

B2 and B3 are the same in Ebola GP pseudotyped lentivirus IC50: 1.2 nM for the first, 1.2 nM for the second.

B4 and B5 are within 1.5-fold of each other in Ebola GP pseudotyped lentivirus IC50: 1 nM for the first, 1.2 nM for the second.

For B6, the Ebola GP pseudotyped lentivirus IC50 was 1.1 nM.
